Results from patent US6518415 (LUDWIG INSTITUTE FOR CANCER RESEARCH, dated 2003).

B1: humanized 3S193 antibody HuVH/HuVK (antibody, V domains shown)
VH: EVQLVESGGGVVQPGRSLRLSCSSSGFTFSDYYMYWVRQAPGKGLEWVAYMSNVGAITDYPDTVKGRFTISRDNSKNTLFLQMDSLRPEDTGVYFCARGTRDGSWFAYWGQGTPVTVSS
VL: DIQMTQSPSSLSASVGDRVTITCRSSQRIVHSNGNTYLEWYQQTPGKAPKLLIYKVSNRFSGVPSRFSGSGSGTDYTFTISSLQPEDIATYYCFQGSHVPFTFGQGTKLQIT
notes: also called 3S193 HuVH/HuVK
B2: humanized 3S193 antibody HuVHA/HuVKF (antibody, V domains shown)
VH: EVQLVESGGGVVQPGRSLRLSCSSSGFTFSDYYMYWVRQAPGKGLEWVAYMSNVGAITDYPDTVKGRFTISRDNAKNTLFLQMDSLRPEDTGVYFCARGTRDGSWFAYWGQGTPVTVSS
VL: DIQMTQSPSSLSASVGDRVTITCRSSQRIVHSNGNTYLEWYQQTPGKAPKLLIYKVSNRFSGVPSRFSGSGSGTDFTFTISSLQPEDIATYYCFQGSHVPFTFGQGTKLQIT
B3: humanized 3S193 antibody HuVHAS/HuVKF (antibody, V domains shown)
VH: EVQLVESGGGVVQPGRSLRLSCSSSGFTFSDYYMYWVRQAPGKGLEWVAYMSNVGAITDYPDTVKGRFTISRDNAKSTLFLQMDSLRPEDTGVYFCARGTRDGSWFAYWGQGTPVTVSS
VL: DIQMTQSPSSLSASVGDRVTITCRSSQRIVHSNGNTYLEWYQQTPGKAPKLLIYKVSNRFSGVPSRFSGSGSGTDFTFTISSLQPEDIATYYCFQGSHVPFTFGQGTKLQIT
B4: humanized 3S193 antibody HuVHASY/HuVKF (antibody, V domains shown)
VH: EVQLVESGGGVVQPGRSLRLSCSSSGFTFSDYYMYWVRQAPGKGLEWVAYMSNVGAITDYPDTVKGRFTISRDNAKSTLYLQMDSLRPEDTGVYFCARGTRDGSWFAYWGQGTPVTVSS
VL: DIQMTQSPSSLSASVGDRVTITCRSSQRIVHSNGNTYLEWYQQTPGKAPKLLIYKVSNRFSGVPSRFSGSGSGTDFTFTISSLQPEDIATYYCFQGSHVPFTFGQGTKLQIT
notes: also called 3S193HuVHASY
B5: murine monoclonal antibody 3S193 (antibody, V domains shown)
VH: EVKLVESGGGLVQPGGSLKLSCATSGFTFSDYYMYWVRQTPEKRLEWVAYMSNVGAITDYPDTVKGRFTISRDNAKSTLYLQMSRLRSEDTAMYYCARGTRDGSWFAYWGQGTLVTVSA
VL: DVLMTQTPLSLPVSLGDQASISCRSSQRIVHSNGNTYLEWYLQKPGQSPKLLIYKVSNRFSGVPDRFSGSGSGTDFTLKISRVEAEDLGVYYCFQGSHVPFTFGSGTKLEIK
notes: The N-terminal residues of the VK in the listing are dictated by the VK10BACK primer; also called murine 3S193

What was measured:
HSA [1] = target: T1, HSA (UniProt P02768 25-609); assay: ELISA, HSA dried on Terasaki plates, Experiment A
Procedure: (§1) The plates were blocked for 1 hour at room temperature using PBS/3% BSA and washed three times with PBS. Serial dilutions of test antibodies in PBS/3% BSA were applied to the wells and the plates incubated for 1 hour before washing as above. Suitable anti-murine antibody or anti-human antibody alkaline phosphatase-conjugated antibodies were diluted in PBS/3% BSA and incubated in the wells for 1.5 h. After washing, colour was developed using diethanolamine and p-nitrophenyl phosphate at 37° C. for about 20 min and the absorbances measured at 405 mn.

HSA [2] = target: T1, HSA; assay: ELISA, HSA dried on Terasaki plates, Experiment B
Procedure: as §1

T1 sequence (P02768 25-609): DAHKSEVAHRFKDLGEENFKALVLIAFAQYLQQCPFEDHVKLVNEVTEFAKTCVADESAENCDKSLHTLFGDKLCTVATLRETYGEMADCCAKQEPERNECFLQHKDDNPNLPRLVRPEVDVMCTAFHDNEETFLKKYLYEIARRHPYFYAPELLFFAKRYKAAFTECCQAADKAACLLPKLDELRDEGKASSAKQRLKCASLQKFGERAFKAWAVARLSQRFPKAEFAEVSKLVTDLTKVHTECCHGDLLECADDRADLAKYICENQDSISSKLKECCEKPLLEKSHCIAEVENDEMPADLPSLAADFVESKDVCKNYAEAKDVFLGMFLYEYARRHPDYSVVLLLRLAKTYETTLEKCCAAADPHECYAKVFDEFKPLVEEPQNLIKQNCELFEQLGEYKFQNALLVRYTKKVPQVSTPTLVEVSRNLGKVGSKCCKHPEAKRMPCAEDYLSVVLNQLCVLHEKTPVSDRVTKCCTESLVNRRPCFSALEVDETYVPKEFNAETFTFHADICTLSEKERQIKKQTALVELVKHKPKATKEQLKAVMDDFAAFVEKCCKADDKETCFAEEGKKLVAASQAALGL

Binder	binding result (HSA [1])	binding result (HSA [2])
B1	no binding (tested: 100 µg/ml (highest concentration tested))	–
B2	–	no binding (tested: 100 µg/ml (highest concentration tested))
B3	–	no binding (tested: 100 µg/ml (highest concentration tested))
B4	–	no binding (tested: 100 µg/ml (highest concentration tested))
B5	no binding (tested: 100 µg/ml (highest concentration tested))	–
